Assays:
[1] = Microtiter [3H]-cocaine isotope tracer hydrolysis assay with immobilized butyrylcholinesterase variants; assay type: biochemical; settings: for increase in cocaine hydrolysis activity compared to human butyrylcholinesterase: region 5 library variants, Examples II through VI; for enhanced cocaine hydrolase activity (library screen): region five library, hydrolysis of [3H]-cocaine
From the text: At the conclusion of the isotope tracer assay, an aliquot of the reaction mix is acidified in order to take advantage of the solubility difference between the product and the substrate at pH 3.0.
The supernatants isolated from each of the butyrylcholinesterase variant library clones contains variable butyrylcholinesterase enzyme concentrations.
At least three approaches are used to either increase the assay sensitivity or the assay signal.

[2] = Spectrophotometric (240 nm) cocaine binding and hydrolysis assay with purified butyrylcholinesterase variants; assay type: biochemical; settings: Table 4
Protocol: […]. Pharmacol. 41:1249–1254 (1991). Km values were determined in 0.1M potassium phosphate pH 7.0 at 30° C. for (−)-cocaine. Vmax values and Km values were calculated using Sigma Plot for Macintosh (Jandel Scientific, San Rafael, Calif.).
Once Vmax values and Km values were calculated, the number of active sites in each butyrylcholinesterase preparation was determined. The titration of active sites was performed with chlorpyrifos oxon (MET-674B, Chem Service, West Chester, Pa.), an inhibitor of butyrylcholinesterase. One molecule of chlorpyrifos oxon binds and inhibits one molecule of butyrylcholinesterase, which allows for calculation of the number of active sites. Based on the number of active sites, the kcat value for each variant was calculated (Table 3). […].

Molecule | increase in cocaine hydrolysis activity compared to human butyrylcholinesterase [1] | enhanced cocaine hydrolase activity (library screen) [1] | Cocaine Binding or Cocaine Hydrolysis (result in words) [2]
S287G (protein, Human Butyrylcholinesterase variant) EDDIIIATKNGKVRGMNLTVFGGTVTAFLGIPYAQPPLGRLRFKKPQSLTKWSDIWNATKYANSCCQNIDQSFPGFHGSEMWNPNTDLSEDCLYLNVWIPAPKPKNATVLIWIYGGGFQTGTSSLHVYDGKFLARVERVIVVSMNYRVGALGFLALPGNPEAPGNMGLFDQQLALQWVQKNIAAFGGNPKSVTLFGESAGAASVSLHLLSPGSHSLFTRAILQSGSFNAPWAVTSLYEARNRTLNLAKLTGCSRENETEIIKCLRNKDPQEILLNEAFVVPYGTPLGVNFGPTVDGDFLTDMPDILLELGQFKKTQILVGVNKDEGTAFLVYGAPGFSKDNNSIITRKEFQEGLKIFFPGVSEFGKESILFHYTDWVDDQRPENYREALGDVVGDYNFICPALEFTKKFSEWGNNAFFYYFEHRSSKLPWPEWMGVMHGYEIEFVFGLPLERRDNYTKAEEILSRSIVKRWANFAKYGNPNETQNNSTSWPVFKSTEQKYLTLNTESTRIMTKLRAQQCRFWTSFFPKVLEMTGNIDEAEWEWKAGFHRWNNYMMDWKNQFNDYTSKKESCVGL | four | enhanced cocaine hydrolase activity | 
G439L (protein, UniProt P06276 29-602, looked up, variant G439L) Cholinesterase: EDDIIIATKNGKVRGMNLTVFGGTVTAFLGIPYAQPPLGRLRFKKPQSLTKWSDIWNATKYANSCCQNIDQSFPGFHGSEMWNPNTDLSEDCLYLNVWIPAPKPKNATVLIWIYGGGFQTGTSSLHVYDGKFLARVERVIVVSMNYRVGALGFLALPGNPEAPGNMGLFDQQLALQWVQKNIAAFGGNPKSVTLFGESAGAASVSLHLLSPGSHSLFTRAILQSGSFNAPWAVTSLYEARNRTLNLAKLTGCSRENETEIIKCLRNKDPQEILLNEAFVVPYGTPLSVNFGPTVDGDFLTDMPDILLELGQFKKTQILVGVNKDEGTAFLVYGAPGFSKDNNSIITRKEFQEGLKIFFPGVSEFGKESILFHYTDWVDDQRPENYREALGDVVGDYNFICPALEFTKKFSEWGNNAFFYYFEHRSSKLPWPEWMGVMHLYEIEFVFGLPLERRDNYTKAEEILSRSIVKRWANFAKYGNPNETQNNSTSWPVFKSTEQKYLTLNTESTRIMTKLRAQQCRFWTSFFPKVLEMTGNIDEAEWEWKAGFHRWNNYMMDWKNQFNDYTSKKESCVGL |  |  | No cocaine hydrolysis activity
L286W (protein, UniProt P06276 29-602, looked up, variant L286W) Cholinesterase: EDDIIIATKNGKVRGMNLTVFGGTVTAFLGIPYAQPPLGRLRFKKPQSLTKWSDIWNATKYANSCCQNIDQSFPGFHGSEMWNPNTDLSEDCLYLNVWIPAPKPKNATVLIWIYGGGFQTGTSSLHVYDGKFLARVERVIVVSMNYRVGALGFLALPGNPEAPGNMGLFDQQLALQWVQKNIAAFGGNPKSVTLFGESAGAASVSLHLLSPGSHSLFTRAILQSGSFNAPWAVTSLYEARNRTLNLAKLTGCSRENETEIIKCLRNKDPQEILLNEAFVVPYGTPWSVNFGPTVDGDFLTDMPDILLELGQFKKTQILVGVNKDEGTAFLVYGAPGFSKDNNSIITRKEFQEGLKIFFPGVSEFGKESILFHYTDWVDDQRPENYREALGDVVGDYNFICPALEFTKKFSEWGNNAFFYYFEHRSSKLPWPEWMGVMHGYEIEFVFGLPLERRDNYTKAEEILSRSIVKRWANFAKYGNPNETQNNSTSWPVFKSTEQKYLTLNTESTRIMTKLRAQQCRFWTSFFPKVLEMTGNIDEAEWEWKAGFHRWNNYMMDWKNQFNDYTSKKESCVGL |  |  | Not a cocaine hydrolase
V288W (protein, UniProt P06276 29-602, looked up, variant V288W) Cholinesterase: EDDIIIATKNGKVRGMNLTVFGGTVTAFLGIPYAQPPLGRLRFKKPQSLTKWSDIWNATKYANSCCQNIDQSFPGFHGSEMWNPNTDLSEDCLYLNVWIPAPKPKNATVLIWIYGGGFQTGTSSLHVYDGKFLARVERVIVVSMNYRVGALGFLALPGNPEAPGNMGLFDQQLALQWVQKNIAAFGGNPKSVTLFGESAGAASVSLHLLSPGSHSLFTRAILQSGSFNAPWAVTSLYEARNRTLNLAKLTGCSRENETEIIKCLRNKDPQEILLNEAFVVPYGTPLSWNFGPTVDGDFLTDMPDILLELGQFKKTQILVGVNKDEGTAFLVYGAPGFSKDNNSIITRKEFQEGLKIFFPGVSEFGKESILFHYTDWVDDQRPENYREALGDVVGDYNFICPALEFTKKFSEWGNNAFFYYFEHRSSKLPWPEWMGVMHGYEIEFVFGLPLERRDNYTKAEEILSRSIVKRWANFAKYGNPNETQNNSTSWPVFKSTEQKYLTLNTESTRIMTKLRAQQCRFWTSFFPKVLEMTGNIDEAEWEWKAGFHRWNNYMMDWKNQFNDYTSKKESCVGL |  |  | Not a cocaine hydrolase
S224Y (protein, UniProt P06276 29-602, looked up, variant S224Y) Cholinesterase: EDDIIIATKNGKVRGMNLTVFGGTVTAFLGIPYAQPPLGRLRFKKPQSLTKWSDIWNATKYANSCCQNIDQSFPGFHGSEMWNPNTDLSEDCLYLNVWIPAPKPKNATVLIWIYGGGFQTGTSSLHVYDGKFLARVERVIVVSMNYRVGALGFLALPGNPEAPGNMGLFDQQLALQWVQKNIAAFGGNPKSVTLFGESAGAASVSLHLLSPGSHSLFTRAILQYGSFNAPWAVTSLYEARNRTLNLAKLTGCSRENETEIIKCLRNKDPQEILLNEAFVVPYGTPLSVNFGPTVDGDFLTDMPDILLELGQFKKTQILVGVNKDEGTAFLVYGAPGFSKDNNSIITRKEFQEGLKIFFPGVSEFGKESILFHYTDWVDDQRPENYREALGDVVGDYNFICPALEFTKKFSEWGNNAFFYYFEHRSSKLPWPEWMGVMHGYEIEFVFGLPLERRDNYTKAEEILSRSIVKRWANFAKYGNPNETQNNSTSWPVFKSTEQKYLTLNTESTRIMTKLRAQQCRFWTSFFPKVLEMTGNIDEAEWEWKAGFHRWNNYMMDWKNQFNDYTSKKESCVGL |  |  | No activity
A328H (protein, UniProt P06276 29-602, looked up, variant A328H) Cholinesterase: EDDIIIATKNGKVRGMNLTVFGGTVTAFLGIPYAQPPLGRLRFKKPQSLTKWSDIWNATKYANSCCQNIDQSFPGFHGSEMWNPNTDLSEDCLYLNVWIPAPKPKNATVLIWIYGGGFQTGTSSLHVYDGKFLARVERVIVVSMNYRVGALGFLALPGNPEAPGNMGLFDQQLALQWVQKNIAAFGGNPKSVTLFGESAGAASVSLHLLSPGSHSLFTRAILQSGSFNAPWAVTSLYEARNRTLNLAKLTGCSRENETEIIKCLRNKDPQEILLNEAFVVPYGTPLSVNFGPTVDGDFLTDMPDILLELGQFKKTQILVGVNKDEGTHFLVYGAPGFSKDNNSIITRKEFQEGLKIFFPGVSEFGKESILFHYTDWVDDQRPENYREALGDVVGDYNFICPALEFTKKFSEWGNNAFFYYFEHRSSKLPWPEWMGVMHGYEIEFVFGLPLERRDNYTKAEEILSRSIVKRWANFAKYGNPNETQNNSTSWPVFKSTEQKYLTLNTESTRIMTKLRAQQCRFWTSFFPKVLEMTGNIDEAEWEWKAGFHRWNNYMMDWKNQFNDYTSKKESCVGL |  |  | Not a cocaine hydrolase
P285Q (protein, Human Butyrylcholinesterase variant) EDDIIIATKNGKVRGMNLTVFGGTVTAFLGIPYAQPPLGRLRFKKPQSLTKWSDIWNATKYANSCCQNIDQSFPGFHGSEMWNPNTDLSEDCLYLNVWIPAPKPKNATVLIWIYGGGFQTGTSSLHVYDGKFLARVERVIVVSMNYRVGALGFLALPGNPEAPGNMGLFDQQLALQWVQKNIAAFGGNPKSVTLFGESAGAASVSLHLLSPGSHSLFTRAILQSGSFNAPWAVTSLYEARNRTLNLAKLTGCSRENETEIIKCLRNKDPQEILLNEAFVVPYGTQLSVNFGPTVDGDFLTDMPDILLELGQFKKTQILVGVNKDEGTAFLVYGAPGFSKDNNSIITRKEFQEGLKIFFPGVSEFGKESILFHYTDWVDDQRPENYREALGDVVGDYNFICPALEFTKKFSEWGNNAFFYYFEHRSSKLPWPEWMGVMHGYEIEFVFGLPLERRDNYTKAEEILSRSIVKRWANFAKYGNPNETQNNSTSWPVFKSTEQKYLTLNTESTRIMTKLRAQQCRFWTSFFPKVLEMTGNIDEAEWEWKAGFHRWNNYMMDWKNQFNDYTSKKESCVGL | four and approximately four | enhanced cocaine hydrolase activity | 
L286H (protein, UniProt P06276 29-602, looked up, variant L286H) Cholinesterase: EDDIIIATKNGKVRGMNLTVFGGTVTAFLGIPYAQPPLGRLRFKKPQSLTKWSDIWNATKYANSCCQNIDQSFPGFHGSEMWNPNTDLSEDCLYLNVWIPAPKPKNATVLIWIYGGGFQTGTSSLHVYDGKFLARVERVIVVSMNYRVGALGFLALPGNPEAPGNMGLFDQQLALQWVQKNIAAFGGNPKSVTLFGESAGAASVSLHLLSPGSHSLFTRAILQSGSFNAPWAVTSLYEARNRTLNLAKLTGCSRENETEIIKCLRNKDPQEILLNEAFVVPYGTPHSVNFGPTVDGDFLTDMPDILLELGQFKKTQILVGVNKDEGTAFLVYGAPGFSKDNNSIITRKEFQEGLKIFFPGVSEFGKESILFHYTDWVDDQRPENYREALGDVVGDYNFICPALEFTKKFSEWGNNAFFYYFEHRSSKLPWPEWMGVMHGYEIEFVFGLPLERRDNYTKAEEILSRSIVKRWANFAKYGNPNETQNNSTSWPVFKSTEQKYLTLNTESTRIMTKLRAQQCRFWTSFFPKVLEMTGNIDEAEWEWKAGFHRWNNYMMDWKNQFNDYTSKKESCVGL |  |  | Not a cocaine hydrolase
A328G (protein, UniProt P06276 29-602, looked up, variant A328G) Cholinesterase: EDDIIIATKNGKVRGMNLTVFGGTVTAFLGIPYAQPPLGRLRFKKPQSLTKWSDIWNATKYANSCCQNIDQSFPGFHGSEMWNPNTDLSEDCLYLNVWIPAPKPKNATVLIWIYGGGFQTGTSSLHVYDGKFLARVERVIVVSMNYRVGALGFLALPGNPEAPGNMGLFDQQLALQWVQKNIAAFGGNPKSVTLFGESAGAASVSLHLLSPGSHSLFTRAILQSGSFNAPWAVTSLYEARNRTLNLAKLTGCSRENETEIIKCLRNKDPQEILLNEAFVVPYGTPLSVNFGPTVDGDFLTDMPDILLELGQFKKTQILVGVNKDEGTGFLVYGAPGFSKDNNSIITRKEFQEGLKIFFPGVSEFGKESILFHYTDWVDDQRPENYREALGDVVGDYNFICPALEFTKKFSEWGNNAFFYYFEHRSSKLPWPEWMGVMHGYEIEFVFGLPLERRDNYTKAEEILSRSIVKRWANFAKYGNPNETQNNSTSWPVFKSTEQKYLTLNTESTRIMTKLRAQQCRFWTSFFPKVLEMTGNIDEAEWEWKAGFHRWNNYMMDWKNQFNDYTSKKESCVGL |  |  | Not a cocaine hydrolase

From US7070973B2, “Butyrylcholinesterase variants and methods of use” (priority 2000, dated 2006)
